Measurements taken from patent EP4663654A1 (Hangzhou Sciwind Biosciences Co., Ltd., dated 2025).
Starred links: 1 amine or outer side, 2 acyl side, 3 side chain; linkers in the order of their positions; H or OH if unused. *: point of attachment. C20 diacid = O=C(O)CCCCCCCCCCCCCCCCCCC(=O)*; C18 diacid = O=C(O)CCCCCCCCCCCCCCCCC(=O)*; C16 diacid = O=C(O)CCCCCCCCCCCCCCC(=O)*; γGlu = O=C(O)[C@H](CCC(=O)[*:2])N[*:1]; AEEA = NCCOCCOCC(=O)O

T1: human amylin receptor (AMY3) on CHO-K1/Ga15/AMY3 amylin receptor/CRE-luc cells (human, UniProt P30988 25-474; O60896 24-148)
T1 sequence (looked up) 1: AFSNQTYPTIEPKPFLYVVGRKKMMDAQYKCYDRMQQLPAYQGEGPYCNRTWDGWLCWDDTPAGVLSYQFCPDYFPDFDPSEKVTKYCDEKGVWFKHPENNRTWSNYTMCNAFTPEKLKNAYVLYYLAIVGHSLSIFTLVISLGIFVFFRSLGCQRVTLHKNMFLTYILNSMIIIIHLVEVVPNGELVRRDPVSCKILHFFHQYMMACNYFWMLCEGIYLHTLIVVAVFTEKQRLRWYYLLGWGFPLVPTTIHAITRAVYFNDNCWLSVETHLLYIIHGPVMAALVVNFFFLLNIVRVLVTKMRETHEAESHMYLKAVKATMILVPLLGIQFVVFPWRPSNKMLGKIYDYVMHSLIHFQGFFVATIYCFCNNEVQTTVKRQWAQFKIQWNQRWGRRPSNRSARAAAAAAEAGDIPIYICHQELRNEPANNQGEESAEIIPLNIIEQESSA
T1 sequence (looked up) 2: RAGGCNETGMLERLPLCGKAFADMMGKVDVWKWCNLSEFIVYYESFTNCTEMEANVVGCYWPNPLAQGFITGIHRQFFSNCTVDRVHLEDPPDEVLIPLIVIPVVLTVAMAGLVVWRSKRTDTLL

B1: polypeptide derivative M3 (peptide)
peptide: {C20 diacid-γGlu}-ASELSTAALGRLADFLRHFTDRDRDILPPTNVGSNTP-NH2
SMILES: CC[C@H](C)[C@H](NC(=O)[C@H](CC(=O)O)NC(=O)[C@H](CCCNC(=N)N)NC(=O)[C@H](CC(=O)O)NC(=O)[C@H](CCCNC(=N)N)NC(=O)[C@H](CC(=O)O)NC(=O)[C@@H](NC(=O)[C@H](Cc1ccccc1)NC(=O)[C@H](Cc1c[nH]cn1)NC(=O)[C@H](CCCNC(=N)N)NC(=O)[C@H](CC(C)C)NC(=O)[C@H](Cc1ccccc1)NC(=O)[C@H](CC(=O)O)NC(=O)[C@H](C)NC(=O)[C@H](CC(C)C)NC(=O)[C@H](CCCNC(=N)N)NC(=O)CNC(=O)[C@H](CC(C)C)NC(=O)[C@H](C)NC(=O)[C@H](C)NC(=O)[C@@H](NC(=O)[C@H](CO)NC(=O)[C@H](CC(C)C)NC(=O)[C@H](CCC(=O)O)NC(=O)[C@H](CO)NC(=O)[C@H](C)NC(=O)CC[C@H](NC(=O)CCCCCCCCCCCCCCCCCCC(=O)O)C(=O)O)[C@@H](C)O)[C@@H](C)O)C(=O)N[C@@H](CC(C)C)C(=O)N1CCC[C@H]1C(=O)N1CCC[C@H]1C(=O)N[C@H](C(=O)N[C@@H](CC(N)=O)C(=O)N[C@H](C(=O)NCC(=O)N[C@@H](CO)C(=O)N[C@@H](CC(N)=O)C(=O)N[C@H](C(=O)N1CCC[C@H]1C(N)=O)[C@@H](C)O)C(C)C)[C@@H](C)O
B2: polypeptide derivative M4 (peptide)
peptide: {C20 diacid-γGlu}-ASQLSTAVLGRLADFLRHFTDRDRDILPPTNVGSNTP-NH2
SMILES: CC[C@H](C)[C@H](NC(=O)[C@H](CC(=O)O)NC(=O)[C@H](CCCNC(=N)N)NC(=O)[C@H](CC(=O)O)NC(=O)[C@H](CCCNC(=N)N)NC(=O)[C@H](CC(=O)O)NC(=O)[C@@H](NC(=O)[C@H](Cc1ccccc1)NC(=O)[C@H](Cc1c[nH]cn1)NC(=O)[C@H](CCCNC(=N)N)NC(=O)[C@H](CC(C)C)NC(=O)[C@H](Cc1ccccc1)NC(=O)[C@H](CC(=O)O)NC(=O)[C@H](C)NC(=O)[C@H](CC(C)C)NC(=O)[C@H](CCCNC(=N)N)NC(=O)CNC(=O)[C@H](CC(C)C)NC(=O)[C@@H](NC(=O)[C@H](C)NC(=O)[C@@H](NC(=O)[C@H](CO)NC(=O)[C@H](CC(C)C)NC(=O)[C@H](CCC(N)=O)NC(=O)[C@H](CO)NC(=O)[C@H](C)NC(=O)CC[C@H](NC(=O)CCCCCCCCCCCCCCCCCCC(=O)O)C(=O)O)[C@@H](C)O)C(C)C)[C@@H](C)O)C(=O)N[C@@H](CC(C)C)C(=O)N1CCC[C@H]1C(=O)N1CCC[C@H]1C(=O)N[C@H](C(=O)N[C@@H](CC(N)=O)C(=O)N[C@H](C(=O)NCC(=O)N[C@@H](CO)C(=O)N[C@@H](CC(N)=O)C(=O)N[C@H](C(=O)N1CCC[C@H]1C(N)=O)[C@@H](C)O)C(C)C)[C@@H](C)O
B3: polypeptide derivative M25 (peptide)
peptide: {C20 diacid-γGlu-AEEA-AEEA-AEEA-AEEA-AEEA-AEEA}-ASQLSTAATQRLADFLRHFTDRDRDILPPTNVGSNTP-NH2
SMILES: CC[C@H](C)[C@H](NC(=O)[C@H](CC(=O)O)NC(=O)[C@H](CCCNC(=N)N)NC(=O)[C@H](CC(=O)O)NC(=O)[C@H](CCCNC(=N)N)NC(=O)[C@H](CC(=O)O)NC(=O)[C@@H](NC(=O)[C@H](Cc1ccccc1)NC(=O)[C@H](Cc1c[nH]cn1)NC(=O)[C@H](CCCNC(=N)N)NC(=O)[C@H](CC(C)C)NC(=O)[C@H](Cc1ccccc1)NC(=O)[C@H](CC(=O)O)NC(=O)[C@H](C)NC(=O)[C@H](CC(C)C)NC(=O)[C@H](CCCNC(=N)N)NC(=O)[C@H](CCC(N)=O)NC(=O)[C@@H](NC(=O)[C@H](C)NC(=O)[C@H](C)NC(=O)[C@@H](NC(=O)[C@H](CO)NC(=O)[C@H](CC(C)C)NC(=O)[C@H](CCC(N)=O)NC(=O)[C@H](CO)NC(=O)[C@H](C)NC(=O)COCCOCCNC(=O)COCCOCCNC(=O)COCCOCCNC(=O)COCCOCCNC(=O)COCCOCCNC(=O)COCCOCCNC(=O)CC[C@H](NC(=O)CCCCCCCCCCCCCCCCCCC(=O)O)C(=O)O)[C@@H](C)O)[C@@H](C)O)[C@@H](C)O)C(=O)N[C@@H](CC(C)C)C(=O)N1CCC[C@H]1C(=O)N1CCC[C@H]1C(=O)N[C@H](C(=O)N[C@@H](CC(N)=O)C(=O)N[C@H](C(=O)NCC(=O)N[C@@H](CO)C(=O)N[C@@H](CC(N)=O)C(=O)N[C@H](C(=O)N1CCC[C@H]1C(N)=O)[C@@H](C)O)C(C)C)[C@@H](C)O
B4: polypeptide derivative M22 (peptide)
peptide: {C18 diacid-γGlu}-ASQLSTAATQRLADFLRHFTDRDRDILPPTNVGSNTP-NH2
SMILES: CC[C@H](C)[C@H](NC(=O)[C@H](CC(=O)O)NC(=O)[C@H](CCCNC(=N)N)NC(=O)[C@H](CC(=O)O)NC(=O)[C@H](CCCNC(=N)N)NC(=O)[C@H](CC(=O)O)NC(=O)[C@@H](NC(=O)[C@H](Cc1ccccc1)NC(=O)[C@H](Cc1c[nH]cn1)NC(=O)[C@H](CCCNC(=N)N)NC(=O)[C@H](CC(C)C)NC(=O)[C@H](Cc1ccccc1)NC(=O)[C@H](CC(=O)O)NC(=O)[C@H](C)NC(=O)[C@H](CC(C)C)NC(=O)[C@H](CCCNC(=N)N)NC(=O)[C@H](CCC(N)=O)NC(=O)[C@@H](NC(=O)[C@H](C)NC(=O)[C@H](C)NC(=O)[C@@H](NC(=O)[C@H](CO)NC(=O)[C@H](CC(C)C)NC(=O)[C@H](CCC(N)=O)NC(=O)[C@H](CO)NC(=O)[C@H](C)NC(=O)CC[C@H](NC(=O)CCCCCCCCCCCCCCCCC(=O)O)C(=O)O)[C@@H](C)O)[C@@H](C)O)[C@@H](C)O)C(=O)N[C@@H](CC(C)C)C(=O)N1CCC[C@H]1C(=O)N1CCC[C@H]1C(=O)N[C@H](C(=O)N[C@@H](CC(N)=O)C(=O)N[C@H](C(=O)NCC(=O)N[C@@H](CO)C(=O)N[C@@H](CC(N)=O)C(=O)N[C@H](C(=O)N1CCC[C@H]1C(N)=O)[C@@H](C)O)C(C)C)[C@@H](C)O
B5: polypeptide derivative M24 (peptide)
peptide: {C20 diacid-γGlu-AEEA-AEEA-AEEA-AEEA}-ASQLSTAATQRLADFLRHFTDRDRDILPPTNVGSNTP-NH2
SMILES: CC[C@H](C)[C@H](NC(=O)[C@H](CC(=O)O)NC(=O)[C@H](CCCNC(=N)N)NC(=O)[C@H](CC(=O)O)NC(=O)[C@H](CCCNC(=N)N)NC(=O)[C@H](CC(=O)O)NC(=O)[C@@H](NC(=O)[C@H](Cc1ccccc1)NC(=O)[C@H](Cc1c[nH]cn1)NC(=O)[C@H](CCCNC(=N)N)NC(=O)[C@H](CC(C)C)NC(=O)[C@H](Cc1ccccc1)NC(=O)[C@H](CC(=O)O)NC(=O)[C@H](C)NC(=O)[C@H](CC(C)C)NC(=O)[C@H](CCCNC(=N)N)NC(=O)[C@H](CCC(N)=O)NC(=O)[C@@H](NC(=O)[C@H](C)NC(=O)[C@H](C)NC(=O)[C@@H](NC(=O)[C@H](CO)NC(=O)[C@H](CC(C)C)NC(=O)[C@H](CCC(N)=O)NC(=O)[C@H](CO)NC(=O)[C@H](C)NC(=O)COCCOCCNC(=O)COCCOCCNC(=O)COCCOCCNC(=O)COCCOCCNC(=O)CC[C@H](NC(=O)CCCCCCCCCCCCCCCCCCC(=O)O)C(=O)O)[C@@H](C)O)[C@@H](C)O)[C@@H](C)O)C(=O)N[C@@H](CC(C)C)C(=O)N1CCC[C@H]1C(=O)N1CCC[C@H]1C(=O)N[C@H](C(=O)N[C@@H](CC(N)=O)C(=O)N[C@H](C(=O)NCC(=O)N[C@@H](CO)C(=O)N[C@@H](CC(N)=O)C(=O)N[C@H](C(=O)N1CCC[C@H]1C(N)=O)[C@@H](C)O)C(C)C)[C@@H](C)O
B6: polypeptide derivative M23 (peptide)
peptide: {C16 diacid-γGlu}-ASQLSTAATQRLADFLRHFTDRDRDILPPTNVGSNTP-NH2
SMILES: CC[C@H](C)[C@H](NC(=O)[C@H](CC(=O)O)NC(=O)[C@H](CCCNC(=N)N)NC(=O)[C@H](CC(=O)O)NC(=O)[C@H](CCCNC(=N)N)NC(=O)[C@H](CC(=O)O)NC(=O)[C@@H](NC(=O)[C@H](Cc1ccccc1)NC(=O)[C@H](Cc1c[nH]cn1)NC(=O)[C@H](CCCNC(=N)N)NC(=O)[C@H](CC(C)C)NC(=O)[C@H](Cc1ccccc1)NC(=O)[C@H](CC(=O)O)NC(=O)[C@H](C)NC(=O)[C@H](CC(C)C)NC(=O)[C@H](CCCNC(=N)N)NC(=O)[C@H](CCC(N)=O)NC(=O)[C@@H](NC(=O)[C@H](C)NC(=O)[C@H](C)NC(=O)[C@@H](NC(=O)[C@H](CO)NC(=O)[C@H](CC(C)C)NC(=O)[C@H](CCC(N)=O)NC(=O)[C@H](CO)NC(=O)[C@H](C)NC(=O)CC[C@H](NC(=O)CCCCCCCCCCCCCCC(=O)O)C(=O)O)[C@@H](C)O)[C@@H](C)O)[C@@H](C)O)C(=O)N[C@@H](CC(C)C)C(=O)N1CCC[C@H]1C(=O)N1CCC[C@H]1C(=O)N[C@H](C(=O)N[C@@H](CC(N)=O)C(=O)N[C@H](C(=O)NCC(=O)N[C@@H](CO)C(=O)N[C@@H](CC(N)=O)C(=O)N[C@H](C(=O)N1CCC[C@H]1C(N)=O)[C@@H](C)O)C(C)C)[C@@H](C)O

target: T1, human amylin receptor (AMY3) on …; experiment: cell-based or functional assay

Binder	EC50/nM, CRE-luciferase reporter in amylin receptor/CRE-luc CHO cells [nM]	Relative activity (the EC50 ratio of Cagrilintide to the compound) [%]
B1	0.081	32
B2	0.081	32
B3	0.124	25
B4	0.016	198
B5	0.066	47
B6	0.017	182
